Test results from patent publication US20160032004A1 (published 2016).

What was measured:
[1] = target: T1, CD74 (invariant chain, Ii) (human, UniProt P04233 1-296); assay: flow cytometry, permeabilized HuH-7 cells
T1 construct: whole, on cells; Endogenous antigen of human cancer cell lines; measured on the surface only or on surface plus cytoplasm (permeabilized cells)
T1 sequence (looked up): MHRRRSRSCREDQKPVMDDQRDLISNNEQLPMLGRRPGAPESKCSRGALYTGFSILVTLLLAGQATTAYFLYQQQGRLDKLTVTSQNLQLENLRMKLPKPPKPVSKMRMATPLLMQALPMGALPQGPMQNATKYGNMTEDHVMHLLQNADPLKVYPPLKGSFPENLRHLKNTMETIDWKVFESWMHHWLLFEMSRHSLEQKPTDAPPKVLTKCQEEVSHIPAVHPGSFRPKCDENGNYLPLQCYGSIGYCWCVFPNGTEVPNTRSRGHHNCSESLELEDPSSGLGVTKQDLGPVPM

[2] = target: T1, CD74 (invariant chain, Ii); assay: flow cytometry, membrane-only, Hep-G2 cells
[3] = target: T1, CD74 (invariant chain, Ii); assay: cell binding assay on antigen-positive cells
[4] = target: T1, CD74 (invariant chain, Ii); assay: flow cytometry, membrane-only, A-375 cells
[5] = target: T1, CD74 (invariant chain, Ii); assay: flow cytometry, membrane-only, Hs746T cells
[6] = target: T1, CD74 (invariant chain, Ii); assay: flow cytometry, permeabilized Hs746T cells
[7] = target: T1, CD74 (invariant chain, Ii); assay: flow cytometry, permeabilized Hep-G2 cells
[8] = target: T1, CD74 (invariant chain, Ii); assay: flow cytometry, permeabilized Capan-1 cells
[9] = target: T1, CD74 (invariant chain, Ii); assay: flow cytometry, membrane-only, HuH-7 cells
[10] = target: T1, CD74 (invariant chain, Ii); assay: flow cytometry, permeabilized Raji cells
[11] = target: T1, CD74 (invariant chain, Ii); assay: flow cytometry, membrane-only, Capan-1 cells
[12] = target: T1, CD74 (invariant chain, Ii); assay: flow cytometry, membrane-only, Raji cells
[13] = target: T1, CD74 (invariant chain, Ii); assay: flow cytometry, permeabilized NCI-N87 cells
[14] = target: T1, CD74 (invariant chain, Ii); assay: flow cytometry, permeabilized A-375 cells
[15] = target: T1, CD74 (invariant chain, Ii); assay: flow cytometry, membrane-only, NCI-N87 cells

B1: Milatuzumab (humanized anti-CD74 antibody, hLL1) (antibody, V domains shown)
VH: QVQLQQSGSELKKPGASVKVSCKASGYTFTNYGVNWIKQAPGQGLQWMGWINPNTGEPTFDDDFKGRFAFSLDTSVSTAYLQISSLKADDTAVYFCSRSRGKNEAWFAYWGQGTLVTVSS
VL: DIQLTQSPLSLPVTLGQPASISCRSSQSLVHRNGNTYLHWFQQRPGQSPRLLIYTVSNRFSGVPDRFSGSGSGTDFTLKISRVEAEDVGVYFCSQSSHVPPTFGAGTRLEIK
MFI Ratio hLL1:bkgd (surface and cytoplasmic) [1]: 28.5 | MFI Ratio hLL1:bkgd (surface) [2]: 1.5 | Kd [3]: 0.77 nM | MFI Ratio hLL1:bkgd (surface) [4]: 5.3 | MFI Ratio hLL1:bkgd (surface) [5]: 2.1 | MFI Ratio hLL1:bkgd (surface and cytoplasmic) [6]: 28.8 | MFI Ratio hLL1:bkgd (surface and cytoplasmic) [7]: 31.2 | MFI Ratio hLL1:bkgd (surface and cytoplasmic) [8]: 49.6 | MFI Ratio hLL1:bkgd (surface) [9]: 1.6 | MFI Ratio hLL1:bkgd (surface and cytoplasmic) [10]: 28.6 | MFI Ratio hLL1:bkgd (surface) [11]: 1.8 | MFI Ratio hLL1:bkgd (surface) [12]: 19.6 | MFI Ratio hLL1:bkgd (surface and cytoplasmic) [13]: 36.7 | MFI Ratio hLL1:bkgd (surface and cytoplasmic) [14]: 30.8 | MFI Ratio hLL1:bkgd (surface) [15]: 1.3
